Consider 71 substances from patent US20050118674A1, “Engineering of Controlled Deamidation Rates in Peptides, Proteins, and Similar Structures” (priority 2003, published 2005).

Where no end group is shown, it is not given here.

The nature of the first data set: First-order nonenzymatic deamidation of pentapeptides in Tris buffer. The format is physicochemical. To be noted: pH 7.4, 37.0° C., 0.15 M Tris HCl; Asn pentapeptides. The method, boiled down: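 First-order deamidation rates determined for XxxAsnYyy and XxxGlnYyy pentapeptides in 0.15 M Tris buffer, pH 7.4, 37° C. Not all values were measured directly: several Asn rates were estimated and most Gln rates came from surface fitting.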
For the substance “GlyAmCysAsnAspGly (CNDG; not fully specified (N-terminus); printed as GlyAmCysAsnAspGly)”, the “First-Order Deamidation Halftimes of GlyXxxAsnYyyGly” value is listed as 32.9 days. Same read-out and setting: the figure for “GlyLysAsnTrpGly (GKNWG; printed: GlyLysAsnTrpGly)” is 98.1 days; for “GlyValAsnHisGly (GVNHG; printed: GlyValAsnHisGly)” it is 10.2 days. Still for that read-out and setting: the figure for “GlyGluAsnGluGly (GENEG; printed: GlyGluAsnGluGly)” is 60.3 days; for “GlyTrpAsnMetGly (GWNMG; printed: GlyTrpAsnMetGly)” it is 64.2 days; for “GlyArgAsnGluGly (GRNEG; printed: GlyArgAsnGluGly)” it is 68.3 days. Consider “GlyMetAsnHisGly (GMNHG; printed: GlyMetAsnHisGly)”, for which the “First-Order Deamidation Halftimes of GlyXxxAsnYyyGly” value amounted to 10.2 days. Still for that read-out and setting: as for “GlyValAsnTrpGly (GVNWG; printed: GlyValAsnTrpGly)”, the figure is 88.9 days; as for “GlySerAsnAspGly (GSNDG; printed: GlySerAsnAspGly)”, 30.3 days; as for “GlyValAsnTyrGly (GVNYG; printed: GlyValAsnTyrGly)”, 79.2 days. On the same count and under the same terms, the figure for “GlyGlyAsnLysGly (GGNKG; printed: GlyGlyAsnLysGly)” is 48.2 days.

As for “GlyTyrAsnValGly (GYNVG; printed: GlyTyrAsnValGly)”, the “First-Order Deamidation Halftimes of GlyXxxAsnYyyGly” value came to 241 days. The same measure, in the same setting: as for “GlyPheAsnAlaGly (GFNAG; printed: GlyPheAsnAlaGly)”, the figure is 24.2 days.

Consider “GlyPheAsnHisGly (GFNHG; printed: GlyPheAsnHisGly)”, for which the “First-Order Deamidation Halftimes of GlyXxxAsnYyyGly” value worked out at 10.2 days. For the substance “GlySerAsnArgGly (GSNRG; printed: GlySerAsnArgGly)”, the “First-Order Deamidation Halftimes of GlyXxxAsnYyyGly” value is listed as 59.7 days.

On to “GlyIleAsnGluGly (GINEG; printed: GlyIleAsnGluGly)”, for which the “First-Order Deamidation Halftimes of GlyXxxAsnYyyGly” value is listed as 58.6 days.

On to “GlyArgAsnGlyGly (GRNGG; printed: GlyArgAsnGlyGly)”, for which the “First-Order Deamidation Halftimes of GlyXxxAsnYyyGly” value is recorded as 1.00 days. Still for that read-out and setting: the figure for “GlyLeuAsnLysGly (GLNKG; printed: GlyLeuAsnLysGly)” is 60.1 days; for “GlyHisAsnPheGly (GHNFG; printed: GlyHisAsnPheGly)” it is 72.1 days. With “GlyHisAsnTyrGly (GHNYG; printed: GlyHisAsnTyrGly)”, the “First-Order Deamidation Halftimes of GlyXxxAsnYyyGly” value was 82.3 days. In the case of “GlyArgAsnLysGly (GRNKG; printed: GlyArgAsnLysGly)”, the “First-Order Deamidation Halftimes of GlyXxxAsnYyyGly” value came to 49.6 days. Consider “GlyThrAsnProGly (GTNPG; printed: GlyThrAsnProGly)”, for which the “First-Order Deamidation Halftimes of GlyXxxAsnYyyGly” value is reported as 6290 days. Same read-out and setting: as for “GlyPheAsnLysGly (GFNKG; printed: GlyPheAsnLysGly)”, the figure is 58.2 days; as for “GlyGlyAsnLeuGly (GGNLG; printed: GlyGlyAsnLeuGly)”, 104 days. As to “GlySerAsnGlyGly (GSNGG; printed: GlySerAsnGlyGly)”, the “First-Order Deamidation Halftimes of GlyXxxAsnYyyGly” value worked out at 0.96 days. On the same count and under the same terms, the figure for “GlyAlaAsnCysGly (GANCG; printed: GlyAlaAsnCysGly)” is 63.7 days. The same measure, in the same setting: the figure for “GlyValAsnSerGly (GVNSG; printed: GlyValAsnSerGly)” is 18.2 days; for “GlyProAsnCysGly (GPNCG; printed: GlyProAsnCysGly)” it is 60.0 days.

Take “GlyIleAsnSerGly (GINSG; printed: GlyIleAsnSerGly)”: the “First-Order Deamidation Halftimes of GlyXxxAsnYyyGly” value is given as 14.5 days. The same measure, in the same setting: as for “GlyValAsnGluGly (GVNEG; printed: GlyValAsnGluGly)”, the figure is 64.8 days; as for “GlyTrpAsnAlaGly (GWNAG; printed: GlyTrpAsnAlaGly)”, 30.7 days; as for “GlyTrpAsnGlyGly (GWNGG; printed: GlyTrpAsnGlyGly)”, 1.75 days. As to “GlyValAsnThrGly (GVNTG; printed: GlyValAsnThrGly)”, the “First-Order Deamidation Halftimes of GlyXxxAsnYyyGly” value was 49.9 days.

As to “GlyIleAsnThrGly (GINTG; printed: GlyIleAsnThrGly)”, the “First-Order Deamidation Halftimes of GlyXxxAsnYyyGly” value stood at 46.3 days. “GlyProAsnThrGly (GPNTG; printed: GlyProAsnThrGly)”: the “First-Order Deamidation Halftimes of GlyXxxAsnYyyGly” value is 63.1 days. Consider “GlyAspAsnTrpGly (GDNWG; printed: GlyAspAsnTrpGly)”, for which the “First-Order Deamidation Halftimes of GlyXxxAsnYyyGly” value was determined as 80.3 days. Take “GlySerAsnLeuGly (GSNLG; printed: GlySerAsnLeuGly)”: the “First-Order Deamidation Halftimes of GlyXxxAsnYyyGly” value amounted to 110 days.

For “GlyHisAsnGluGly (GHNEG; printed: GlyHisAsnGluGly)”, the “First-Order Deamidation Halftimes of GlyXxxAsnYyyGly” value amounted to 69.4 days. Same read-out and setting: as for “GlyHisAsnMetGly (GHNMG; printed: GlyHisAsnMetGly)”, the figure is 63.1 days; as for “GlyThrAsnCysGly (GTNCG; printed: GlyThrAsnCysGly)”, 55.5 days.

The same data set, now with this note: pH 7.4, 37.0 ° C., 0.15 M Tris HCl; Gln pentapeptides; 52 values measured, rest derived from surface fitting.
With “GlyAlaGlnThrGly (GAQTG; printed: GlyAlaGlnThrGly)”, the “First-Order Deamidation Halftimes of GlyXxxGlnYyyGly” value came to 5100 days. On the same count and under the same terms, the figure for “GlyIleGlnLysGly (GIQKG; printed: GlyIleGlnLysGly)” is 6100 days; for “GlyGlyGlnPheGly (GGQFG; printed: GlyGlyGlnPheGly)” it is 7600 days. Still for that read-out and setting: the figure for “GlyGlyGlnCysGly (GGQCG; printed: GlyGlyGlnCysGly)” is 1900 days; for “GlyLysGlnValGly (GKQVG; printed: GlyLysGlnValGly)” it is 5700 days.

As for “GlyLysGlnIleGly (GKQIG; printed: GlyLysGlnIleGly)”, the “First-Order Deamidation Halftimes of GlyXxxGlnYyyGly” value is 5400 days. In the case of “GlyAspGlnGluGly (GDQEG; printed: GlyAspGlnGluGly)”, the “First-Order Deamidation Halftimes of GlyXxxGlnYyyGly” value is given as 8200 days. As for “GlyMetGlnGluGly (GMQEG; printed: GlyMetGlnGluGly)”, the “First-Order Deamidation Halftimes of GlyXxxGlnYyyGly” value was 5800 days. Still for that read-out and setting: the figure for “GlyLysGlnGlyGly (GKQGG; printed: GlyLysGlnGlyGly)” is 650 days. Same read-out and setting: as for “GlyAlaGlnGlyGly (GAQGG; printed: GlyAlaGlnGlyGly)”, the figure is 610 days. Still for that read-out and setting: as for “GlyIleGlnPheGly (GIQFG; printed: GlyIleGlnPheGly)”, the figure is 8100 days.

In the case of “GlyGluGlnIleGly (GEQIG; printed: GlyGluGlnIleGly)”, the “First-Order Deamidation Halftimes of GlyXxxGlnYyyGly” value was 4200 days. Still for that read-out and setting: the figure for “GlyMetGlnCysGly (GMQCG; printed: GlyMetGlnCysGly)” is 900 days; for “GlyTrpGlnAspGly (GWQDG; printed: GlyTrpGlnAspGly)” it is 8800 days; for “GlyTyrGlnHisGly (GYQHG; printed: GlyTyrGlnHisGly)” it is 7400 days. “GlyAlaGlnTrpGly (GAQWG; printed: GlyAlaGlnTrpGly)”: the “First-Order Deamidation Halftimes of GlyXxxGlnYyyGly” value was determined as 14000 days. The same measure, in the same setting: as for “GlyAspGlnIleGly (GDQIG; printed: GlyAspGlnIleGly)”, the figure is 6400 days. Consider “GlyTyrGlnThrGly (GYQTG; printed: GlyTyrGlnThrGly)”, for which the “First-Order Deamidation Halftimes of GlyXxxGlnYyyGly” value is recorded as 5600 days. On to “GlyMetGlnSerGly (GMQSG; printed: GlyMetGlnSerGly)”, for which the “First-Order Deamidation Halftimes of GlyXxxGlnYyyGly” value is on record as 4100 days. Consider “GlyThrGlnGlyGly (GTQGG; printed: GlyThrGlnGlyGly)”, for which the “First-Order Deamidation Halftimes of GlyXxxGlnYyyGly” value is 670 days. As to “GlyIleGlnValGly (GIQVG; printed: GlyIleGlnValGly)”, the “First-Order Deamidation Halftimes of GlyXxxGlnYyyGly” value amounted to 7100 days. On to “GlyArgGlnLysGly (GRQKG; printed: GlyArgGlnLysGly)”, for which the “First-Order Deamidation Halftimes of GlyXxxGlnYyyGly” value came out at 4000 days.

As for “GlyArgGlnGluGly (GRQEG; printed: GlyArgGlnGluGly)”, the “First-Order Deamidation Halftimes of GlyXxxGlnYyyGly” value was determined as 5400 days. Same read-out and setting: as for “GlySerGlnLysGly (GSQKG; printed: GlySerGlnLysGly)”, the figure is 6300 days; as for “GlySerGlnHisGly (GSQHG; printed: GlySerGlnHisGly)”, 6500 days; as for “GlyLeuGlnAspGly (GLQDG; printed: GlyLeuGlnAspGly)”, 7800 days. For the substance “GlyMetGlnHisGly (GMQHG; printed: GlyMetGlnHisGly)”, the “First-Order Deamidation Halftimes of GlyXxxGlnYyyGly” value stood at 4400 days. Same read-out and setting: as for “GlyMetGlnArgGly (GMQRG; printed: GlyMetGlnArgGly)”, the figure is 5100 days; as for “GlyLeuGlnGlyGly (GLQGG; printed: GlyLeuGlnGlyGly)”, 670 days; as for “GlyAspGlnAspGly (GDQDG; printed: GlyAspGlnAspGly)”, 8400 days. “GlyGlyGlnThrGly (GGQTG; printed: GlyGlyGlnThrGly)”: the “First-Order Deamidation Halftimes of GlyXxxGlnYyyGly” value was found to be 5200 days.
